According to US20200297818A1 (ZEALAND PHARMA A S, published 2020):
*1 amine or outer side, *2 acyl side, *3 side chain or, on linkers, in order; H or OH if unused. Side-chain parts run from the residue outwards. [ ]: non-standard residue; d: D form. The star is where a group is joined. C20 diacid = O=C(O)CCCCCCCCCCCCCCCCCCC(=O)*; γGlu = O=C(O)[C@H](CCC(=O)[*:2])N[*:1]; AEEA = NCCOCCOCC(=O)O; Aib = CC(C)(N)C(=O)O

T1: human GLP-2 receptor (hGLP2-R) (human, UniProt O95838 1-553)
T1 sequence (looked up): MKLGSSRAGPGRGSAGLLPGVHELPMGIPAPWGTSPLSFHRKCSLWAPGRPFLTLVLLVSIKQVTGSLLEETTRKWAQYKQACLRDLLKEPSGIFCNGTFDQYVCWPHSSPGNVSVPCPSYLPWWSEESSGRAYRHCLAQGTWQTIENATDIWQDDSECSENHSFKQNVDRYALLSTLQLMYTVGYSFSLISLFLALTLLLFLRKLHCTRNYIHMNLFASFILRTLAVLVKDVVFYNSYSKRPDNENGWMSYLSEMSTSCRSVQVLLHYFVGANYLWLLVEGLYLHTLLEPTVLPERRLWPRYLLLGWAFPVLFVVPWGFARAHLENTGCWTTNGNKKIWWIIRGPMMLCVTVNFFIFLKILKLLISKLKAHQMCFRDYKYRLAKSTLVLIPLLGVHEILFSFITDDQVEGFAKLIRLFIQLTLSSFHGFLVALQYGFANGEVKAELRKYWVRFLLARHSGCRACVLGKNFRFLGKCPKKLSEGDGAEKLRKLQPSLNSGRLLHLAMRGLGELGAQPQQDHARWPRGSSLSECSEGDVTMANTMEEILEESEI


Tests used:
[1] = target: T1, human GLP-2 receptor (hGLP2-R); assay: cell-based or functional assay
[2] = target: human glucagon-like peptide 1 receptor (GLP-1 R) (human, UniProt P43220 24-463); assay: cell-based or functional assay

Binder	EC50 GLP-2 (nM); cAMP response [1] [nM]	EC50 GLP-1 (nM); cAMP response [2] [nM]
H-H[Aib]EGTFTSELATILDK([γGlu-C20 diacid])QAARDFIAWLIQHKITD-OH [Compound 41]	0.62	0.048
HXEGTFTSELATILDEQAARDFIAWLIAHKITDXXXXXXX (HELM PEPTIDE1{H.[Aib].E.G.T.F.T.S.E.L.A.T.I.L.D.E.Q.A.A.R.D.F.I.A.W.L.I.A.H.K.I.T.D.[dK].[dK].[dK].[dK].[dK].[dK].[am]}|PEPTIDE2{[O=C(O)CCCCCCCCCCCCCCCCC(=O)[*:2]].[gGlu]}$PEPTIDE1,PEPTIDE2,39:R3-2:R2$$$V2.0; SMILES CC[C@H](C)[C@H](NC(=O)[C@H](CC(C)C)NC(=O)[C@H](Cc1c[nH]c2ccccc12)NC(=O)[C@H](C)NC(=O)[C@@H](NC(=O)[C@H](Cc1ccccc1)NC(=O)[C@H](CC(=O)O)NC(=O)[C@H](CCCNC(=N)N)NC(=O)[C@H](C)NC(=O)[C@H](C)NC(=O)[C@H](CCC(N)=O)NC(=O)[C@H](CCC(=O)O)NC(=O)[C@H](CC(=O)O)NC(=O)[C@H](CC(C)C)NC(=O)[C@@H](NC(=O)[C@@H](NC(=O)[C@H](C)NC(=O)[C@H](CC(C)C)NC(=O)[C@H](CCC(=O)O)NC(=O)[C@H](CO)NC(=O)[C@@H](NC(=O)[C@H](Cc1ccccc1)NC(=O)[C@@H](NC(=O)CNC(=O)[C@H](CCC(=O)O)NC(=O)C(C)(C)NC(=O)[C@@H](N)Cc1c[nH]cn1)[C@@H](C)O)[C@@H](C)O)[C@@H](C)O)[C@@H](C)CC)[C@@H](C)CC)C(=O)N[C@@H](C)C(=O)N[C@@H](Cc1c[nH]cn1)C(=O)N[C@@H](CCCCN)C(=O)N[C@H](C(=O)N[C@H](C(=O)N[C@@H](CC(=O)O)C(=O)N[C@H](CCCCN)C(=O)N[C@H](CCCCN)C(=O)N[C@H](CCCCN)C(=O)N[C@H](CCCCN)C(=O)N[C@H](CCCCN)C(=O)N[C@H](CCCCNC(=O)CC[C@H](NC(=O)CCCCCCCCCCCCCCCCC(=O)O)C(=O)O)C(N)=O)[C@@H](C)O)[C@@H](C)CC) [Compound 39]	0.98	0.044
HXEGSFTSELATILDEQAARDFIAWLIEHKITDXXXXXXX (HELM PEPTIDE1{H.[Aib].E.G.S.F.T.S.E.L.A.T.I.L.D.E.Q.A.A.R.D.F.I.A.W.L.I.E.H.K.I.T.D.[dK].[dK].[dK].[dK].[dK].[dK].[am]}|PEPTIDE2{[O=C(O)CCCCCCCCCCCCCCCCC(=O)[*:2]].[gGlu]}$PEPTIDE1,PEPTIDE2,39:R3-2:R2$$$V2.0; SMILES CC[C@H](C)[C@H](NC(=O)[C@H](Cc1ccccc1)NC(=O)[C@H](CC(=O)O)NC(=O)[C@H](CCCNC(=N)N)NC(=O)[C@H](C)NC(=O)[C@H](C)NC(=O)[C@H](CCC(N)=O)NC(=O)[C@H](CCC(=O)O)NC(=O)[C@H](CC(=O)O)NC(=O)[C@H](CC(C)C)NC(=O)[C@@H](NC(=O)[C@@H](NC(=O)[C@H](C)NC(=O)[C@H](CC(C)C)NC(=O)[C@H](CCC(=O)O)NC(=O)[C@H](CO)NC(=O)[C@@H](NC(=O)[C@H](Cc1ccccc1)NC(=O)[C@H](CO)NC(=O)CNC(=O)[C@H](CCC(=O)O)NC(=O)C(C)(C)NC(=O)[C@@H](N)Cc1c[nH]cn1)[C@@H](C)O)[C@@H](C)O)[C@@H](C)CC)C(=O)N[C@@H](C)C(=O)N[C@@H](Cc1c[nH]c2ccccc12)C(=O)N[C@@H](CC(C)C)C(=O)N[C@H](C(=O)N[C@@H](CCC(=O)O)C(=O)N[C@@H](Cc1c[nH]cn1)C(=O)N[C@@H](CCCCN)C(=O)N[C@H](C(=O)N[C@H](C(=O)N[C@@H](CC(=O)O)C(=O)N[C@H](CCCCN)C(=O)N[C@H](CCCCN)C(=O)N[C@H](CCCCN)C(=O)N[C@H](CCCCN)C(=O)N[C@H](CCCCN)C(=O)N[C@H](CCCCNC(=O)CC[C@H](NC(=O)CCCCCCCCCCCCCCCCC(=O)O)C(=O)O)C(N)=O)[C@@H](C)O)[C@@H](C)CC)[C@@H](C)CC) [Compound 40]	0.5	0.074
H-H[Aib]EGSFTSELATILEGK([AEEA-AEEA-γGlu-C20 diacid])AARDFIAWLIEHKITD-OH [Compound 44]	0.14	0.063
H-H[Aib]EGSFTSELATILDK([AEEA-AEEA-γGlu-C20 diacid])KAARDFIAWLIEHKITD-OH (SMILES CC[C@H](C)[C@H](NC(=O)[C@H](Cc1ccccc1)NC(=O)[C@H](CC(=O)O)NC(=O)[C@H](CCCNC(=N)N)NC(=O)[C@H](C)NC(=O)[C@H](C)NC(=O)[C@H](CCCCN)NC(=O)[C@H](CCCCNC(=O)COCCOCCNC(=O)COCCOCCNC(=O)CC[C@H](NC(=O)CCCCCCCCCCCCCCCCCCC(=O)O)C(=O)O)NC(=O)[C@H](CC(=O)O)NC(=O)[C@H](CC(C)C)NC(=O)[C@@H](NC(=O)[C@@H](NC(=O)[C@H](C)NC(=O)[C@H](CC(C)C)NC(=O)[C@H](CCC(=O)O)NC(=O)[C@H](CO)NC(=O)[C@@H](NC(=O)[C@H](Cc1ccccc1)NC(=O)[C@H](CO)NC(=O)CNC(=O)[C@H](CCC(=O)O)NC(=O)C(C)(C)NC(=O)[C@@H](N)Cc1c[nH]cn1)[C@@H](C)O)[C@@H](C)O)[C@@H](C)CC)C(=O)N[C@@H](C)C(=O)N[C@@H](Cc1c[nH]c2ccccc12)C(=O)N[C@@H](CC(C)C)C(=O)N[C@H](C(=O)N[C@@H](CCC(=O)O)C(=O)N[C@@H](Cc1c[nH]cn1)C(=O)N[C@@H](CCCCN)C(=O)N[C@H](C(=O)N[C@H](C(=O)N[C@@H](CC(=O)O)C(=O)O)[C@@H](C)O)[C@@H](C)CC)[C@@H](C)CC) [Compound 43]	0.15	0.096
H-H[Aib]EGSFTSELATILDEQAAK([AEEA-AEEA-γGlu-C20 diacid])DFIAWLIEHKITD-OH (SMILES CC[C@H](C)[C@H](NC(=O)[C@H](Cc1ccccc1)NC(=O)[C@H](CC(=O)O)NC(=O)[C@H](CCCCNC(=O)COCCOCCNC(=O)COCCOCCNC(=O)CC[C@H](NC(=O)CCCCCCCCCCCCCCCCCCC(=O)O)C(=O)O)NC(=O)[C@H](C)NC(=O)[C@H](C)NC(=O)[C@H](CCC(N)=O)NC(=O)[C@H](CCC(=O)O)NC(=O)[C@H](CC(=O)O)NC(=O)[C@H](CC(C)C)NC(=O)[C@@H](NC(=O)[C@@H](NC(=O)[C@H](C)NC(=O)[C@H](CC(C)C)NC(=O)[C@H](CCC(=O)O)NC(=O)[C@H](CO)NC(=O)[C@@H](NC(=O)[C@H](Cc1ccccc1)NC(=O)[C@H](CO)NC(=O)CNC(=O)[C@H](CCC(=O)O)NC(=O)C(C)(C)NC(=O)[C@@H](N)Cc1c[nH]cn1)[C@@H](C)O)[C@@H](C)O)[C@@H](C)CC)C(=O)N[C@@H](C)C(=O)N[C@@H](Cc1c[nH]c2ccccc12)C(=O)N[C@@H](CC(C)C)C(=O)N[C@H](C(=O)N[C@@H](CCC(=O)O)C(=O)N[C@@H](Cc1c[nH]cn1)C(=O)N[C@@H](CCCCN)C(=O)N[C@H](C(=O)N[C@H](C(=O)N[C@@H](CC(=O)O)C(=O)O)[C@@H](C)O)[C@@H](C)CC)[C@@H](C)CC) [Compound 45]	0.36	1.4
H-H[Aib]EGSFTSEK([AEEA-AEEA-γGlu-C20 diacid])ATILDEQAARDFIAWLIEHKITD-OH (SMILES CC[C@H](C)[C@H](NC(=O)[C@H](Cc1ccccc1)NC(=O)[C@H](CC(=O)O)NC(=O)[C@H](CCCNC(=N)N)NC(=O)[C@H](C)NC(=O)[C@H](C)NC(=O)[C@H](CCC(N)=O)NC(=O)[C@H](CCC(=O)O)NC(=O)[C@H](CC(=O)O)NC(=O)[C@H](CC(C)C)NC(=O)[C@@H](NC(=O)[C@@H](NC(=O)[C@H](C)NC(=O)[C@H](CCCCNC(=O)COCCOCCNC(=O)COCCOCCNC(=O)CC[C@H](NC(=O)CCCCCCCCCCCCCCCCCCC(=O)O)C(=O)O)NC(=O)[C@H](CCC(=O)O)NC(=O)[C@H](CO)NC(=O)[C@@H](NC(=O)[C@H](Cc1ccccc1)NC(=O)[C@H](CO)NC(=O)CNC(=O)[C@H](CCC(=O)O)NC(=O)C(C)(C)NC(=O)[C@@H](N)Cc1c[nH]cn1)[C@@H](C)O)[C@@H](C)O)[C@@H](C)CC)C(=O)N[C@@H](C)C(=O)N[C@@H](Cc1c[nH]c2ccccc12)C(=O)N[C@@H](CC(C)C)C(=O)N[C@H](C(=O)N[C@@H](CCC(=O)O)C(=O)N[C@@H](Cc1c[nH]cn1)C(=O)N[C@@H](CCCCN)C(=O)N[C@H](C(=O)N[C@H](C(=O)N[C@@H](CC(=O)O)C(=O)O)[C@@H](C)O)[C@@H](C)CC)[C@@H](C)CC) [Compound 42]	0.33	0.067
